Assay results from patent US20050193443A1.

Molecular target: maize VIVIPAROUS-1 (VP1) B3-domain transcription factor (maize) (UniProt P26307)
Assay: cell-based or functional assay

UniProt P26307, sequence (P26307 whole entry): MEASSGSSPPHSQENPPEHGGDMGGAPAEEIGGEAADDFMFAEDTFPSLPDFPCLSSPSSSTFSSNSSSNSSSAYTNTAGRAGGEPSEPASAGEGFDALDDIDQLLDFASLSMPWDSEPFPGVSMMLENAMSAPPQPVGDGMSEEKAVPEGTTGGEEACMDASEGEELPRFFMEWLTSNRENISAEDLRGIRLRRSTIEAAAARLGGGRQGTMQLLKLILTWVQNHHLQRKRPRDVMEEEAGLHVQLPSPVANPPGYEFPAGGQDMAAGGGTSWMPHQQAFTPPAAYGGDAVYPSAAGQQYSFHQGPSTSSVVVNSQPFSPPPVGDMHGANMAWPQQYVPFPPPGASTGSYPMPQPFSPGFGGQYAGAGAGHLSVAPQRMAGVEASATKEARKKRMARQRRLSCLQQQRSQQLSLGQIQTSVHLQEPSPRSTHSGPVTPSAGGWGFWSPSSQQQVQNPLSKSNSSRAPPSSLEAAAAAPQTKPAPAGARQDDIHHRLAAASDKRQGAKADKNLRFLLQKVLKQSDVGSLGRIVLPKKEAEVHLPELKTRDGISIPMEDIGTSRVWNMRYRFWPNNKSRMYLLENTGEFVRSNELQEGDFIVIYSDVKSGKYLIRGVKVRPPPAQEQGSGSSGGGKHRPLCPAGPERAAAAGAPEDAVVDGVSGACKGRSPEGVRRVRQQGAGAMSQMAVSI

Substance: ABF3 (ABA-Response Element-Binding Factor 3) (from UniProt Q9M7Q3 1-454)
- ABA-inducible Em-GUS reporter gene expression, transiently co-transformed rice protoplasts; synergy relative to that of ABI5 with VP1: 2 fold
